The values that follow are results of earlier work, collected in patent US20200102349A1, “PEPTIDE REAGENTS AND METHODS FOR DETECTION AND TARGETING OF DYSPLASIA, EARLY CANCER AND CANCER” (THE REGENTS OF THE UNIVERSITY OF MICHIGAN, priority 2014, published 2020).

The data set relates to mouse xenograft tumor that overexpressesed EGFR. Particulars: whole body fluorescence imaging.

B1: Human recombinant EGF: Human recombinant EGF labeled with IRDye 800 CW (NHS ester) (protein, UniProt P01133 23-1207, looked up)
Pro-epidermal growth factor: PQHWSCPEGTLAGNGNSTCVGPAPFLIFSHGNSIFRIDTEGTNYEQLVVDAGVSVIMDFHYNEKRIYWVDLERQLLQRVFLNGSRQERVCNIEKNVSGMAINWINEEVIWSNQQEGIITVTDMKGNNSHILLSALKYPANVAVDPVERFIFWSSEVAGSLYRADLDGVGVKALLETSEKITAVSLDVLDKRLFWIQYNREGSNSLICSCDYDGGSVHISKHPTQHNLFAMSLFGDRIFYSTWKMKTIWIANKHTGKDMVRINLHSSFVPLGELKVVHPLAQPKAEDDTWEPEQKLCKLRKGNCSSTVCGQDLQSHLCMCAEGYALSRDRKYCEDVNECAFWNHGCTLGCKNTPGSYYCTCPVGFVLLPDGKRCHQLVSCPRNVSECSHDCVLTSEGPLCFCPEGSVLERDGKTCSGCSSPDNGGCSQLCVPLSPVSWECDCFPGYDLQLDEKSCAASGPQPFLLFANSQDIRHMHFDGTDYGTLLSQQMGMVYALDHDPVENKIYFAHTALKWIERANMDGSQRERLIEEGVDVPEGLAVDWIGRRFYWTDRGKSLIGRSDLNGKRSKIITKENISQPRGIAVHPMAKRLFWTDTGINPRIESSSLQGLGRLVIASSDLIWPSGITIDFLTDKLYWCDAKQSVIEMANLDGSKRRRLTQNDVGHPFAVAVFEDYVWFSDWAMPSVMRVNKRTGKDRVRLQGSMLKPSSLVVVHPLAKPGADPCLYQNGGCEHICKKRLGTAWCSCREGFMKASDGKTCLALDGHQLLAGGEVDLKNQVTPLDILSKTRVSEDNITESQHMLVAEIMVSDQDDCAPVGCSMYARCISEGEDATCQCLKGFAGDGKLCSDIDECEMGVPVCPPASSKCINTEGGYVCRCSEGYQGDGIHCLDIDECQLGEHSCGENASCTNTEGGYTCMCAGRLSEPGLICPDSTPPPHLREDDHHYSVRNSDSECPLSHDGYCLHDGVCMYIEALDKYACNCVVGYIGERCQYRDLKWWELRHAGHGQQQKVIVVAVCVVVLVMLLLLSLWGAHYYRTQKLLSKNPKNPYEESSRDVRSRRPADTEDGMSSCPQPWFVVIKEHQDLKNGGQPVAGEDGQAADGSMQPTSWRQEPQLCGMGTEQGCWIPVSSDKGSCPQVMERSFHMPSYGTQTLEGGVEKPHSLLSANPLWQQRALDPPHQMELTQ
modifications: Pro-epidermal growth factor IRDye 800CW label
For B1, the “time of peak signal after injection” value was 2 days.
